Drawing on PMC6684798, “Structural basis for the target specificity of actin histidine methyltransferase SETD3” (Nature Communications, 2019), this text covers K73 methylation product for one substance.

The target of this assay is T1, SETD3 WT (Homo sapiens, UniProt Q86TU7).
T1 construct: GST (cleaved yes); made in house; host or cells: Escherichia coli BL21(DE3) CodonPlus
T1 sequence (Q86TU7 1-594): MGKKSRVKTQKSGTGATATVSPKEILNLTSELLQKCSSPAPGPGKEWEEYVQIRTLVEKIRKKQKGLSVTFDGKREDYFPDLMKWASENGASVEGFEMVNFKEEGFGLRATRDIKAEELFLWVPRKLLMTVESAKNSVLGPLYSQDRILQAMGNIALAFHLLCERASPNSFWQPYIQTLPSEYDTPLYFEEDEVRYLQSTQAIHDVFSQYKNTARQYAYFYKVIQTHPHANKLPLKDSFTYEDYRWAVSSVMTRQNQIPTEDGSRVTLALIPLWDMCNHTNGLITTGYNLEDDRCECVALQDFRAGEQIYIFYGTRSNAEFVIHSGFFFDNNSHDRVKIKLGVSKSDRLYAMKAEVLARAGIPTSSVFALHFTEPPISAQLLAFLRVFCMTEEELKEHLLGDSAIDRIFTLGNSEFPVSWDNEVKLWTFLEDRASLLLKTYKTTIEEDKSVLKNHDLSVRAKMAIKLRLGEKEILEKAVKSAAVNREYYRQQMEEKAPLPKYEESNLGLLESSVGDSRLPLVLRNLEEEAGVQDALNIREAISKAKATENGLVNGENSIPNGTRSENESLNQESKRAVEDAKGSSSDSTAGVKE
Put plainly: MALDI-TOF analysis of K73(66–88) methylation by SETD3 WT (Fig. 3e). Format: biochemical. Particulars: pH 10.5, 37 °C, 3 μM WT, 10 µM peptide, 40 µM SAM. As for the experimental part: Fig. 3 Kinetics of SETD3 on H73 and K73 peptides. a Comparison of activities of three variants (WT, N255A, and N255V) on H73(66–80) peptide. The assays were performed at room temperature (~22 °C) and pH 8.0 using [WT] = 0.18 μM, [N255A] = 0.18 μM, and [N255V] = 0.72 μM. b Comparison of SETD3 WT activities on two K73 peptides (residues 66–80 and 66–88). The assays were performed at 37 °C and pH 10.5 using [WT] = 3 and 15 μM, respectively, for the long and short peptides. c Comparison of activities of three variants (N255A, N255V, and WT) on K73(66–88) peptide. The assays were performed at 37 °C and pH 10.5 using [N255A] = 90 nM, [N255V] = 0.72 μM and [WT] = 4 μM. Data represent the mean ± SD of N number of independent determinations (N = 3 for the WT and N = 2 for the mutants) performed in duplicate. Source data are provided as a Source Data file. d, e Mass spectrometry analysis of K73(66–88) methylation kinetic showing representative spectra at various time points for N255A variant (panel d) and SETD3 WT enzyme (panel e). […]
Recombinant human SETD3 (pXC2003) was expressed as a GST-fusion[22] in Escherichia coli BL21(DE3) CodonPlus^TM cells (Stratagene). […]
Actin K73 peptide (residues 66–88) was used as a substrate for SETD3 (Fig. 3d, e). […] We note that samples diluted into a 0.1% (v/v) TFA solution in water could not be detected by MALDI-TOF, thus the acetonitrile additive is necessary.

For the substance “K73(66–88): K73-containing actin H73K peptide, residues 66–88 (TLKYPIEKGIVTNWDDMEKIWHH; UniProt P60709 66-88, looked up, variant H73K)”, the K73 methylation product result by setting is: (2 h) “only monomethyl lysine”; (overnight) “substantial amounts of unmodified and monomethyl substrates remain, along with a small amount of dimethyl and tri-methyl products”.
